Reference: paper PMC4031664 (Prion, 2013)

Molecular target: T1, tandem OR repeats of mouse PrP (Mus musculus)
T1 chain: PHGGSWGQPHGGSWGQ
Assay: crystal structure

B1: Fab fragment of the monoclonal POM2 IgG (Fab, V domains shown)
VH: VKLQESGGEVVRPGTSVKVSCKASGYAFTNYLIEWVKQRPGQGLEWIGVINPGSGDTNYNEKFKGKATLTADKSSSTAYMQLNSLTSDDSAVYFCARSGAAAPTYYAMDYWGQGVSVTVSS
VL: DIVMTQSHKFMSTSVGDRVSITCKASQVGTALAWYQQKPGQSPKLLIYWASTRHTGVPDRFTGSGSGTDFTLTISNVQSEDLSDYFCQQYSSYPTFGGGTKLEIK
Q: Does B1 bind?
A: binds
